According to PMC5809250:

Assays:
Assay in all cases: AUC
[1] = biological target: Advate (recombinant full-length factor VIII, HC–LC heterodimer) (human) (UniProt P00451)
[2] = biological target: Helixate FS (recombinant full-length factor VIII, HC–LC heterodimer) (human) (UniProt P00451)
[3] = biological target: Kogenate FS (recombinant full-length factor VIII, HC–LC heterodimer) (human) (UniProt P00451)

Advate (recombinant full-length factor VIII, HC–LC heterodimer) (from UniProt P00451 20-1332; P00451 1668-2351) (complex)
percent of the A280 signal in the 12–20 S distribution (Lot 2) [1]: 3.8% | percent of the protein-related absorbance signal in the 10.5–10.6 S peak [1]: 7% | stoichiometry N [1]: 2

Helixate FS (recombinant full-length factor VIII, HC–LC heterodimer) (from UniProt P00451 20-1332; P00451 1668-2351) (complex)
stoichiometry N [2]: 2

Kogenate FS (recombinant full-length factor VIII, HC–LC heterodimer) (from UniProt P00451 20-1332; P00451 1668-2351) (complex)
percent of the protein-related absorbance signal in the 10.5–10.6 S peak [3]: 5% | stoichiometry N [3]: 2
